Source: patent publication US20180355045A1 (LIMITED LIABILITY COMPANY ONCOMAX LLC ONCOMAX, published 2018)

Assays:
[1] = molecular target: T1, recombinant FGFR1 antigen (on the SPR chip; PA-269#37 or Sino Biologicals #10616-H08H, not told which) (human, UniProt P11362-7 22-374); assay: SPR (BIAcore T100), FGFR1 on a CM5 chip, antibody in flow, 1:1 model
T1 sequence (looked up): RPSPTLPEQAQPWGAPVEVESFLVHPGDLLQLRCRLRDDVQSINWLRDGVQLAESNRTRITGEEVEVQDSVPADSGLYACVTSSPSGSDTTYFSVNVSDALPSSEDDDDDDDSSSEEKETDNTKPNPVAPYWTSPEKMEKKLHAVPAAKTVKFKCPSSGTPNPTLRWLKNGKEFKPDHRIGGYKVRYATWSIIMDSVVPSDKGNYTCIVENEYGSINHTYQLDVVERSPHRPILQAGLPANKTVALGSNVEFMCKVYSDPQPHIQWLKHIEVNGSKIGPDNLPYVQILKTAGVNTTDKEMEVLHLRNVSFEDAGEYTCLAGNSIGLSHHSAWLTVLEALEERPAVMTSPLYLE
Experimental: Analysis of surface plasmon resonance was performed using the BIAcore T100 System Operation Kit (BIAcore; GE Healthcare). […] Different antibody variants were diluted in HBS-P buffer (10 mmol/L HEPES, pH 7.4, 0.15 mol/L NaCl and 0.05% surfactant P20) and passed over the sensor chip surface (25 μl/min). The sensory surface was washed with HBS-P buffer, and then regenerated using 10 mmol/L glycine-HCl (pH 2). Different antibody concentrations were tested ([…]). Different cyclic kinetic properties were determined, and the results were analyzed using the 1:1 (Langmuir) binding model, inclusive of the association rate constant (Kₒₙ), dissociation rate constant (Koff) and dissociation constant (Kd) (Biacore, GE Healthcare).

[2] = molecular target: T2, fibroblast growth factor receptor 1 (FGFR1), preparation not stated (UniProt P11362 22-376, limits assumed); assay: method not stated; antibody from the CHO-OM8-21 cell line; antibody from the CHO-OM8-21 cell line
T2 construct: also called FGF receptor; FGFR1 receptor
T2 sequence (looked up): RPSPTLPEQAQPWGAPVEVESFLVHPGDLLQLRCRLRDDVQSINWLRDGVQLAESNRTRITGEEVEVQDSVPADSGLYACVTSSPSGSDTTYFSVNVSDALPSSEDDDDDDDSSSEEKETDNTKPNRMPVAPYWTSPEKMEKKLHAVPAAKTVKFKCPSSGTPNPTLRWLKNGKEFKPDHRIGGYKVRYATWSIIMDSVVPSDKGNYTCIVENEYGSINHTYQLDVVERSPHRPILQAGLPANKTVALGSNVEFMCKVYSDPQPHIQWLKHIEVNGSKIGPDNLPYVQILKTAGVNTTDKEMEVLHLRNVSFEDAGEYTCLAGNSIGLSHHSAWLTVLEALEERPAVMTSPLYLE

B1: humanized anti-FGFR1 antibody OM-RCA-01 (VH3/VL5) (antibody, human IgG1, kappa, V domains shown)
VH: QVQLQESGPGLVKPSQTLSLTCTVSGYSITSDYAWSWIRQHPGKGLEWIGYITYSGTTYYNPSLKSRVTISVDTSKNQFSLKLSSVTAADTAVYYCARDGNYFDYWGQGTLVTVSS
VL: DIQLTQSPSFLSASVGDRVTITCRASSSVSSSYLHWYQQKPGKAPKLLIYRTSTLQSGVPSRFSGSGSGTEFTLTISSLQPEDFATYYCQQWSGYPLTFGGGTKVEIKR
notes: Human IgG1 (IGHG1*03) / kappa; also called VH3A/L5; OM1
**Q.** Which results are given for B1?
**A.** Kd [1]: 1.59 nM; Kd [2]: 9.27 nM
